{"source": "patent US20040170622A1", "about": "“Methods and compositions for modulating XBP-1 activity” (President and Fellows of Harvard College, priority 2002, published 2004)", "molecules": {"B1": {"name": "XBP-1u: murine XBP-1 with point mutations at loop positions −1 and +3; yields only unspliced 33 K protein (protein)", "chain": "MVVVAAAPSAATAAPKVLLLSGQPASGGRALPLMVPGPRAAGSEASGTPQARKRQRLTHLSPEEKALRRKLKNRVAAQTARDRKKARMSELEQQVVDLEEENHKLQLENQLLREKTHGLVVENQELRTRLGMDTLDPDEVPEVEAKGSGVRLVAGSAESAALRLCAPLQQVQAQLSPPQNIFPWTLTLLPLQILSLISFWAFWTSWTLSCFSNVLPQSLLVWRNSQRSTQKDLVPYQPPFLCQWGPHQPSWKPLMNSFVLTMYTPSL"}}, "key": {"[1]": {"test_system": "XBP-1^−/− B cells", "assay": "Ig production by retrovirally transduced XBP-1-/- primary B cells (ELISA)", "format": "cell-based, mouse", "details": "LPS 10 μg/ml 72 h", "description": "(§1) Assays to measure immunoglobulin or cytokine levels in culture supernatants were performed as described (e.g., Hodge et al., 1996 Immunity. 4:397-405 or Science. 1996 274:1903-5).\n(§2) The XBP-1 cDNAs for the unspliced (XBP-1u/s) and the spliced (XBP-1s) forms were PCR-amplified from the total RNA of untreated and tunicamycin treated NIH3T3 cells, respectively, with a primer set (5′-[…]-3′ (SEQ ID NO: 7) and 5′-[…]-3′) (SEQ ID NO: 8). XBP-1u form was generated by a PCR-based mutagenesis from XBP-unspliced/s cDNA so that the two G residues at position 532 and 535 were changed to A without changing amino acid sequences in the XBP-1u open reading frame. Numbers are based on the sequences from gene bank database (NM_013842 [gi:13775155]). These XBP-1 cDNAs were inserted into the GFP-RV retroviral vector by using blunt end ligation (Sambrook et al., 1989). EFFECTENE transfection (Quiagen) was used to introduce the DNA into the Phoenix cell line as described by manufacturer (e.g., Reimold et al., 2001 Nature. 412:300-7 or Int Immunol. 2001 13:241-8). Viral supernatants were harvested after 48 hours and frozen at −80° C. for later use. B cells were purified from mouse spleens using CD43 depletion or positive selection with B220+ magnetic beads as described by the manufacturer (MidiMacs, Miltenyi Biotech). B cell purity was generally near 95% as confirmed by flow cytometry. The B cells (10^6 cells /ml) were then activated in culture with LPS 10 μg/ml and F (ab′)2 anti-IgM (5 μg/ml Southern Biotechnology Associates Inc.) for 24 hours. The 1 ml of activated B cells (10^6 cells/ml) were mixed with 4 μg of polybrene and 1 ml of virus-containing supernatant and spun at 1000 g for 45 minutes at 24° C. Cells were incubated for 24-36 h at 37° C. and then GFP+ cells were flow sorted and returned to culture with and without stimulation.\nThe effects of these three different forms of XBP-1 on Ig secretion were compared in wild type and XBP-1^−/− B cells. In vitro activated splenic B cells were transduced using retroviruses expressing bicistronic mRNA encoding XBP-1u/s, XBP-1s, XBP-1u or control GFP. In FIGS. 5(A) and (B) purified B cells from wt and XBP-1^−/− mice were activated in culture with LPS 10 μg/ml and F (ab′)2 anti-IgM (5 μg/ml) for 24 hours. Retroviral transduction with GFP alone (GFP-Rv), XBP-1u/s (XBP-1u/s GFP Rv), XBP-1s (XBP-1s GFP Rv) or XBP-1u (XBP-1u GFP Rv) of activated B cells was performed. Cells were incubated for 24-36 h at 37° C. and then GFP+ cells were flow sorted and then returned to culture with LPS stimulation (10 μg/ml) for 72 h. IgM panel(A) and IgG2b panel (B) production analyzed by ELISA from culture supernatants of stimulated B cells. Experiments were done at least three times and standard deviation is shown."}, "[2]": {"test_system": "XBP-1s", "assay": "UPRE-luciferase reporter in NIH3T3 cells", "format": "cell-based", "description": "(A) Ubiquitination of XBP-1 in HeLa cells were cotransfected with XBP-1u and His-tagged ubiquitin expression plasmids. (B) Degradation rates of XBP-1u and XBP-1s proteins were determined by pulse labeling J558 cells with ^35S Met/Cys for 1 hr and chasing for the indicated times. (C) Effect of XBP-1u on XBP-1s dependent UPRE activation in PI-treated NIH3T3 cells with 8-fold excess of XBP-1u plasmids. Transfected cells were treated with MG-132 for 16 hrs before harvesting for luciferase assays. Values represent fold induction of activity compared to the reporter alone after normalizing to Renilla. (D) Generation and expression of lysine to arginine XBP-1u mutants. Two or three lysine residues in the C-terminus of XBP-1u were replaced by arginine to generate XBP-1uKK (235, 252) and XBP-1uKKK(146, 235, 252) by site-directed mutagenesis. dn-XBP contains the N-terminal 188 aa of XBP-1u. Western blot analysis was performed with NIH3T3 extracts transfected with the indicated plasmids. E) Inhibition of XBP-1 dependent activation of the UPRE reporter in NIH 3T3 cells by XBP-1u lysine to arginine mutants.\nTwo or three lysine residues in the C-terminus of XBP-1u were replaced by arginines to generate XBP-1uKK (K235R, K252R) and XBP-1uKKK(K146R, K235R, K252R) by site-directed mutagenesis (Iwakoshi et al.2003 Nature Immunology 4: 321-329). dn-XBP contains the N-terminal 188 aa of XBP-1u. NTH3T3 cells were transfected by using the Lipofectamine2000 reagent as recommended by the manufacturer (Invitrogen, Carlsbad, Calif.) with indicated amount of UPRE (UPR element) reporter (Wang et al. 2000 J Biol Chem 275: 27013-27020) and various effector plasmids. Cells were treated for 16 hours before harvest in certain experiments. Cells were lysed in passive lysis buffer for dual luciferase assays according to the manufacturer's protocol (Promega, Madison, Wis.)."}, "[3]": {"test_system": "IL-6", "assay": "IL-6 production by retrovirally transduced wt and XBP-1-/- B cells (ELISA, Northern blot)", "format": "cell-based, murine", "details": "wild type and XBP-1-/- cells", "description": "as §1, §2\nIn human multiple myeloma cells, XBP-1 was induced by IL-6 treatment and implicated in the proliferation of malignant plasma cells (Wen et al., 1999). However, no role for IL-6 in upregulating XBP-1 transcripts or in mediating splicing of XBP-1 RNA in mature B cells has been described (FIG. 6A). The ability of XBP-1 to induce IL-6 production in wt and XBP-1^−/− primary B cells was tested. As described above, in vitro activated murine splenic B cells were transduced using retroviruses expressing bicistronic mRNA for XBP-1u/s, XBP-1s, XBP-1u and control GFP. After cell sorting, GFP^+ cells were stimulated with LPS and assayed for cytokine production after 72 h. In FIG. 6 panel (A) purified B cells from wt and XBP-1^−/− mice were activated in culture with LPS 10 μg/ml and F(ab′)2 anti-IgM (5 μg/ml ) for 24 hours. Retroviral transduction with GFP alone (GFP-Rv), XBP-1u/s (XBP-1 u/s GFP Rv), XBP-1s (XBP-1s GFP Rv) or XBP-1u (XBP-1u GFP Rv) of activated B cells was performed. Cells were incubated for 24-36 h at 37° C. and then GFP+ cells were flow sorted and then returned to culture with LPS stimulation (10 μg/ml) for 72 h. Cytokine production was analyzed by ELISA from culture supernatants of stimulated B cells. Experiments were done at least three times and standard deviation is shown. In panel (B) Total RNAs were prepared from stimulated B cells above and XBP-1 mRNA levels were determined by Northern blot analysis with γ-actin control"}, "[4]": {"test_system": "XBP-1", "assay": "XBP-luciferase reporter in NIH3T3 cells", "format": "cell-based", "details": "in the presence of 5 uM MG-132; with unspliced XBP-1 (41.9 without)", "description": "The fold induction of luciferase was measured in NIH3T3 cells bearing XBP-luciferase. The constructs included four copies of the XBP-1 target sequence TGGATGACGTGTACA (SEQ ID NO: 9) fused to the minimal promoter of the mouse RANTES gene (Clauss et al. Nucleic Acids Research 1996. 24:1855) or five copies of the ATF6/XBP-1 target […] (SEQ ID NO: 10) and comprising −53/+45 of the cfos promoter (J. Biol. Chem. 275:27013). In the presence of 5 uM MG-132, the presence of unspliced XBP-1 inhibits the fold induction of luciferase from 41.9 to 5.8. Thus, in the presence of proteasome inhibitors, the unspliced protein blocks the function of the spliced protein."}}}
{"molecule": "B1", "values": [{"measurement": "secretion of IgG2b compared to control cells", "setting": "[1]", "result": "unable to increase IgG secretion"}, {"measurement": "secretion of IgM compared to control cells", "setting": "[1]", "result": "unable to increase IgM secretion"}, {"measurement": "UPRE reporter activity", "setting": "[2]; in the absence of treatment", "result": "but not XBP-1u, greatly increased reporter activity"}, {"measurement": "effect on transactivation of UPRE reporter by XBP-1s", "setting": "[2]; in the presence of MG-132, 16 hrs, 8-fold excess of XBP-1u plasmid", "result": "significantly suppressed transactivation of the reporter by XBP-1s"}, {"measurement": "IL-6 amounts expressed", "setting": "[3]", "result": "moderate amounts of IL-6"}, {"measurement": "fold induction of luciferase", "setting": "[4]", "result": 5.8}]}
